Assay type in all cases: cell-based, Yarrowia
Experiment [1] concerns olivetolic acid. The experiment is described as follows: Linkers for GPS1.1-MPT4 fusions, in vivo assay (Example 6). The note with it: 1 mM olivetolic acid, 72 h quench; for CBGA / FCBGA: 2% glycerol, strain sCL-SE-0128; for CBGA/FCBGA: product ratio. The protocol: As described in detail below, plasmids pCL-SE-0380 (MPT4), pCL-SE-0406, pCL-SE-0435, and pCL-SE-0437 were transformed into strain sCL-SE-0128. Four separate colonies per transformation were precultured for 24 h in YNB containing glycerol (2%), casamino acids (0.5%), and MES (100 mM pH 6.5). Pre-culture was used to inoculate assay medium comprised of YNB containing glycerol (2%), casamino acids (0.5%), MES (100 mM pH 6.5), and olivetolic acid (1 mM). Cultures were quenched after 72 h total growth by mixing with equal volume of EtOH. Enzymes produced CBGA and FCBGA. Averages and standard deviations were calculated from replicates.
However, sCL-SE-0128 expresses HMGR and GPS1.1 to increase intracellular GPP levels for prenylation of OA to CBGA. The plasmids that were transformed contain either a gene expressing a prenyl-transferase (pCL-SE-0380 (MPT4)) or a gene expressing a fusion between GPS1.1 and a prenyl-transferase with different linker sequences.
(§1) Overnight YPD (10 g/L yeast extract, 20 g/L peptone, 2% dextrose) cultures were inoculated from glycerol stocks of the appropriate strain and grown at 30° C. with 250 rpm shaking. Once cultures had reached an OD600 of 4-6, cultures were centrifuged at 500×g for 5 min, supernatants were discarded, and cell pellets were resuspended in equal volume of water. Resuspended cells were centrifuged at 500×g for 5 min, supernatants were discarded, and cells were resuspended in a volume (75 μL×OD×Vculture) of transformation cocktail (45% PEG-400, 0.1 M LiAc, 0.1 M DTT, and 25 ug/100 μL SS Salmon Sperm DNA). For each transformation, >1 μg of plasmid DNA was added to 55 μL cells/transformation cocktail and vortexed for 2 s. Transformations were incubated at 39° C. for 1 h with 250 rpm shaking. Transformations were resuspended in 750 μL YPD with 1 M sorbitol and recovered at 30° C. overnight with 250 rpm shaking. The next day, transformations were centrifuged at 500×g for 5 min, supernatants were discarded, and cell pellets were resuspended in 750 YPD. Resuspended transformations were plated on YPD with appropriate selection or YNBD (6.71 g/L yeast nitrogen base+nitrogen, 0.5% casamino acids, 2% dextrose) agar plates and grown at 30° C. for 2 days. Individual colonies were patched onto YPD plates with appropriate selection or YNBD plates and grown at 30° C. overnight. Patches were used to inoculate 0.5 mL YPD with appropriate selection or YNBD precultures in 96 w blocks and grown at 30° C. for 24-48 h with 1000 rpm shaking. For assays, 0.5 mL YPD with appropriate selection or YNBD cultures containing substrate were inoculated with 2 μL from precultures and grown at 30° C. for 2-4 days with 1000 rpm shaking with 2% glucose added every 24 h. Assay cultures were quenched by addition of 0.5 mL ethanol with 0.2% formic acid and 0.5 mg/mL pentyl-benzoic acid. Precipitates were pelleted by centrifuging at 4600×g for 10 min and then 200 μL was transferred to fresh plates, sealed, and analyzed via HPLC.
(§2) All samples were quenched with equal volume of EtOH containing 0.2 mg/mL internal standard (3,5-Diisopropyl-2-hydroxybenzoic acid CAS #2215-21-6) centrifuged, and clarified solutions were analyzed by HPLC-MS
(§3) • Column: 2.1×50 mm COSMOCORE PBr (Nacalai USA, Inc.) • Mobile Phase: A; 0.1% formic acid in water, B; 0.1% formic acid in acetonitrile • Flow: 0.45 mL/min • Temp: % 50 Celsius • Gradient: 20%B at 0 min, 70%B at 2.3 min, 89% B at 4.2 min, 20% B at 4.3 min, 20%B at 6 min

Experiment [2] concerns olivetolic acid. The experiment in a line: GPS-APT fusions, OA feed in vivo assay (Example 11). The protocol: As described below, plasmids pCL-SE-0406, pCL-SE-0664, pCL-SE-0663, pCL-SE-0662, pCL-SE-0380 (MPT4), pCL-SE-0337.MPT21, pCL-SE-0337.MPT26, and pCL-SE-0337.MPT31 were transformed into strain sCL-SE-0128. Multiple colonies per transformation were precultured for 48 h in YNB containing glucose (2%), casamino acids (0.5%), and MES (100 mM pH 6.5). Pre-culture was used to inoculate assay medium comprised of YNB containing glucose (2%), casamino acids (0.5%), MES (100 mM pH 6.5), and olivetolic acid (2 mM). Cultures were quenched with equal volume of ethanol after 48 h total growth and assayed for CBGA and FCBGA. Averages and standard deviations were calculated from replicates.
Soluble prenyl transferase APT73.77 was fused with GPS1.1 at the N- or C-terminus with different linkers creating the plasmids shown in Table 14. These fusion proteins were expressed and screened as described in Example 8 (olivetolic acid feed)
as §1, §2, §3

The subject of experiment [3] is olivetolic acid. The experiment is described as follows: GPS1.1 fusions of MPT21 mutants, OA feed (Example 8, Table 10). To be noted: in words; mutagenesis of MPT21, tested as GPS1.1-F11 fusions. The protocol:
as §1, §2, §3

Setting [4] is: olivetolic acid feed as in Example 8, 48 h quench, strain sCL-SE-0128.

Substitutions are numbered along the chain they refer to.

B1: GPS1.1-F5-MPT4: fusion protein, SEQ ID NO: 17 (protein)
chain: MSKAKFESVFPRISEELVQLLRDEGLPQDAVQWFSDSLQYNCVGGKLNRGLSVVDTYQLLTGKKELDDEEYYRLALLGWLIELLQAFWLVSDDIMDESKTRRGQPCWYLKPKVGMIAIWDAFMLESGIYILLKKHFRQEKYYIDLVELFHDISFKTELGQLVDLLTAPEDEVDLNRFSLDKHSFIVRYKTAYYSFYLPVVLAMYVAGITNPKDLQQAMDVLIPLGEYFQVQDDYLDNFGDPEFIGKIGTDIQDNKCSWLVNKALQKATPEQRQILEDNYGVKDKSKELVIKKLYDDMKIEQDYLDYEEEVVGDIKKKIEQVDESRGFKKEVLNAFLAKIYKRQKGGGGSGGGGSGGGGSMSDNSIATKILNFGHTCWKLQRPYVVKGMISIACGLFGRELFNNRHLFSWGLMWKAFFALVPILSFNFFAAIMNQIYDVDIDRINKPDLPLVSGEMSIETAWILSIIVALTGLIVTIKLKSAPLFVFIYIFGIFAGFAYSVPPIRWKQYPFTNFLITISSHVGLAFTSYSATTSALGLPFVWRPAFSFIIAFMTVMGMTIAFAKDISDIEGDAKYGVSTVATKLGARNMTFVVSGVLLLNYLVSISIGIIWPQVFKSNIMILSHAILAFCLIFQTRELALANYASAPSRQFFEFIWLLYYAEYFVYVFI
modifications: GPS1.1-F5-MPT4, geranyl diphosphate synthase, membrane-bound prenyltransferase fusion protein
With B1, in the experiment on olivetolic acid [1], the CBGA is 333 ± 129 µM, the FCBGA stood at 49 ± 15 µM and the CBGA/FCBGA is 6.8.

B2: APT73.77-F18-GPS1.1: fusion protein, SEQ ID NO: 66 (protein)
chain: MDEVYAAVEQTSRLLDVPCSPDRFEPVWKAFGDQLPDSHLVFSMAAGEAHRGELDFDFSLRPEGADPYTTALEHGFIEPTDHPVGSVLAEVGKRFAIASYGVEYGVVGGFKKSYAFFPLDDFPPLAQFAEVPSVPPCLAGHVETLTRLGFDDKVSIIGVNYRKNTLNVYLAASAVDTGDKLALLRAFGYPEPDARVRQFIERSFRLYPTFNWDSSAAERICFAVHTQQPGELPAPHDEPTEAFARQVPHVYEGGREFVSGVALAPSGASYYKLAALYQKARRCLDGGGGSLEDPAVWEAGKVVAKGVGTADITATTSNGLIASSEEADNAATSMSKAKFESVFPRISEELVQLLRDEGLPQDAVQWFSDSLQYNCVGGKLNRGLSVVDTYQLLTGKKELDDEEYYRLALLGWLIELLQAFWLVSDDIMDESKTRRGQPCWYLKPKVGMIAIWDAFMLESGIYILLKKHFRQEKYYIDLVELFHDISFKTELGQLVDLLTAPEDEVDLNRFSLDKHSFIVRYKTAYYSFYLPVVLAMYVAGITNPKDLQQAMDVLIPLGEYFQVQDDYLDNFGDPEFIGKIGTDIQDNKCSWLVNKALQKATPEQRQILEDNYGVKDKSKELVIKKLYDDMKIEQDYLDYEEEVVGDIKKKIEQVDESRGFKKEVLNAFLAKIYKRQK
modifications: APT73.77-F18-GPS1.1, mutant soluble aromatic prenyltransferase, geranyl diphosphate synthase fusion protein
In the case of B2, in the experiment with olivetolic acid [2] (setting [4]), the CBGA turned out to be 382 ± 26 µM and the FCBGA was 149 ± 4 µM. Also, the CBGA/FCBG with olivetolic acid [2] (olivetolic acid feed, 48 h quench, product ratio) turned out to be 2.6.

B3: GPS1.1-F10-MPT4: fusion protein, SEQ ID NO: 19 (protein)
chain: MSKAKFESVFPRISEELVQLLRDEGLPQDAVQWFSDSLQYNCVGGKLNRGLSVVDTYQLLTGKKELDDEEYYRLALLGWLIELLQAFWLVSDDIMDESKTRRGQPCWYLKPKVGMIAIWDAFMLESGIYILLKKHFRQEKYYIDLVELFHDISFKTELGQLVDLLTAPEDEVDLNRFSLDKHSFIVRYKTAYYSFYLPVVLAMYVAGITNPKDLQQAMDVLIPLGEYFQVQDDYLDNFGDPEFIGKIGTDIQDNKCSWLVNKALQKATPEQRQILEDNYGVKDKSKELVIKKLYDDMKIEQDYLDYEEEVVGDIKKKIEQVDESRGFKKEVLNAFLAKIYKRQKGGAEAAAKEAAAKAAEAAAKEAAAKAAEAAAKEAAAKAAEAAAKEAAAKAGGMSDNSIATKILNFGHTCWKLQRPYVVKGMISIACGLFGRELFNNRHLFSWGLMWKAFFALVPILSFNFFAAIMNQIYDVDIDRINKPDLPLVSGEMSIETAWILSIIVALTGLIVTIKLKSAPLFVFIYIFGIFAGFAYSVPPIRWKQYPFTNFLITISSHVGLAFTSYSATTSALGLPFVWRPAFSFIIAFMTVMGMTIAFAKDISDIEGDAKYGVSTVATKLGARNMTFVVSGVLLLNYLVSISIGIIWPQVFKSNIMILSHAILAFCLIFQTRELALANYASAPSRQFFEFIWLLYYAEYFVYVFI
modifications: GPS1.1-F10-MPT4, geranyl diphosphate synthase, membrane-bound prenyltransferase fusion protein
Turning to B3, in the experiment with olivetolic acid [1], the CBGA was 350 ± 17 µM, the FCBGA came to 54 ± 1 µM and the CBGA/FCBGA came out at 6.5.

B4: MPT21.9 (protein)
chain: MSDNSIATKILNFGHTCWKLQRPYVVKGMISIACGLFGKELLHNTNLISWGLMWKAFFALVPILSFNFFASIMNQIYDVDIDRINKPDLPLVSGEMSIETAWILSIIVALTGLIVTIKLKSAPLFVFIYIFGIFAGFAYSVPPIRWKQNPSTNFLITISSHVGLAFTSYYASRAALGLPFELRPSFTFLLAFMTVMGMTIAFAKDISDIEGDAKYGVSTVATKLGARNMTFVVSGVLLLNYVAAILAGIIWPQAFNSNVMLLSHAILAFCLIFQTRELALANYASAPSRQFFEFIWLLYYAEYFVYVFI
modifications: MPT21.9 (recombinant membrane-bound prenyltransferase)
For B4, the “activity towards CBGA formation” value in the experiment on olivetolic acid [3] was “improved activity towards CBGA formation”.

B5: MPT21.10 (protein)
chain: B4 chain with S71A, I81M
modifications: MPT21.10 (recombinant membrane-bound prenyltransferase)
As to B5, the “ratio of CBGA/FCBGA” value with olivetolic acid [3] was “improved ratio of CBGA/FCBGA”.

B6: MPT21.2 (protein)
chain: B4 chain with Y24M, S71A
modifications: MPT21.2 (recombinant membrane-bound prenyltransferase)
Consider B6, for which, in the experiment on olivetolic acid [3], the “ratio of CBGA/FCBGA” value was “improved ratio of CBGA/FCBGA”.

B7: MPT21.8 (protein)
chain: B4 chain with S71G
modifications: MPT21.8 (recombinant membrane-bound prenyltransferase)
On to B7, for which the “ratio of CBGA/FCBGA” value in the experiment with olivetolic acid [3] is “improved ratio of CBGA/FCBGA”.

B8: MPT21.18 (protein)
chain: B4 chain with S71A, T275A
modifications: MPT21.18 (recombinant membrane-bound prenyltransferase)
On to B8, for which the “activity towards CBGA formation” value in the experiment with olivetolic acid [3] was “improved activity towards CBGA formation”.

The record behind these values is patent US20240228986A1, “ENGINEERED CELLS, ENZYMES, AND METHODS FOR PRODUCING CANNABINOIDS” (priority 2021, published 2024).
